Where a chain is given by its changes, count along the chain named.
B1: 3F5 scFv-Fc (Fc fusion)
chain: EIQLQQSGAELVKPGASVKMSCKASGYTFRYYNMHWVKRTPGQGLEWIGLIYPDNGDTSYNQKFKGKATLTADTSSSTAYMQLSSLTSEDSAVYYCARGGLDYWGQGTTLTVSSGGGGSGGGGSGGGGSDIVLTQSPASLSASVGETVTITCGASENIYGALNWYQRKQGKSPQLLIYGATNLADGMSSRFSGSGSGRQYSLKISSLHPDDVATYYCQNVLSTPYTFGGGTKLEIKESKYGPPCPPCPAPEAAGGPSVFLFPPKPKDTLMISRTPEVTCVVVDVSQEDPEVQFNWYVDGVEVHNAKTKPREEQFNSTYRVVSVLTVLHQDWLNGKEYKCKVSNKGLPSSIEKTISKAKGQPREPQVYTLPPSQEEMTKNQVSLTCLVKGFYPSDIAVEWESNGQPENNYKTTPPVLDSDGSFFLYSKLTVDKSRWQEGNVFSCSVMHEALHNHYTQKSLSLSLG
B2: 3C7 scFv-Fc (Fc fusion)
chain: EIQLQQSGAELVKPGASVKMSCKASGYIFRNYYIHWVKRTPGQGLEWIGAIYPDNGDTSYNQRFKVKATLTADTSSSTAYMQLSSLTSEDSAVYYCARAFTYWGQGTTLTVSSGGGGSGGGGSGGGGSDIQMIQSPASLSASVGETVTITCGASENIYGALNWYQRKQGKSPQLLIYGATNLADGMSSRFSGSGSGRQYSLKISSLHPDDVATYYCQNVLSTPYTFGGGTKLEIKESKYGPPCPPCPAPEAAGGPSVFLFPPKPKDTLMISRTPEVTCVVVDVSQEDPEVQFNWYVDGVEVHNAKTKPREEQFNSTYRVVSVLTVLHQDWLNGKEYKCKVSNKGLPSSIEKTISKAKGQPREPQVYTLPPSQEEMTKNQVSLTCLVKGFYPSDIAVEWESNGQPENNYKTTPPVLDSDGSFFLYSKLTVDKSRWQEGNVFSCSVMHEALHNHYTQKSLSLSLG
B3: 3F10 scFv-Fc (Fc fusion)
chain: EVQLQQSGAELVKPGASVKMSCKASGYTFSFYNIHWVRQTPGQGLEWIGLIYPDNGDTSYNQKFKAKATLTADKSSSTAYMQLSSLTSEDSAVYYCARGGFDYWGQGTTLTVSSGGGGSGGGGSGGGGSDVLMTQSPASLSASVGETVTITCGASENIYGALNWYQRKQGKSPQLLIYGATNLADGMSSRFSGSGSGRQYSLKISSLHPDDVATYYCQNVLSTPYTFGGGTKLEIKESKYGPPCPPCPAPEAAGGPSVFLFPPKPKDTLMISRTPEVTCVVVDVSQEDPEVQFNWYVDGVEVHNAKTKPREEQFNSTYRVVSVLTVLHQDWLNGKEYKCKVSNKGLPSSIEKTISKAKGQPREPQVYTLPPSQEEMTKNQVSLTCLVKGFYPSDIAVEWESNGQPENNYKTTPPVLDSDGSFFLYSKLTVDKSRWQEGNVFSCSVMHEALHNHYTQKSLSLSLG
B4: 3C9 scFv-Fc (Fc fusion)
chain: B1 chain with T28I, V132Q, L133M, T134I
B5: 3D6 scFv-Fc (Fc fusion)
chain: QVQLQQSGAELVKPGASVKMSCKASGYTFRYYNMHWVKRTPGQGLEWIGLIYPDNGDTSYNQKFKGKATLTADTSSSTAYMQLSSLTSEDSAVYYCARGGLDYWGQGTSLTVSSGGGGSGGGGSGGGGSDIQMTQSPASLSVSVGETVTITCRASENIYSNLAWYQQKQGKSPQLLVYNAKTLADGVPSRFSGSGSGTQYSLKINSLQPEDFGSYYCQHFWSTPFTFGSGTKLELKESKYGPPCPPCPAPEAAGGPSVFLFPPKPKDTLMISRTPEVTCVVVDVSQEDPEVQFNWYVDGVEVHNAKTKPREEQFNSTYRVVSVLTVLHQDWLNGKEYKCKVSNKGLPSSIEKTISKAKGQPREPQVYTLPPSQEEMTKNQVSLTCLVKGFYPSDIAVEWESNGQPENNYKTTPPVLDSDGSFFLYSKLTVDKSRWQEGNVFSCSVMHEALHNHYTQKSLSLSLG
B6: 3H6 scFv-Fc (Fc fusion)
chain: QVQLQQSGAELVKPGASVKMSCKASGYTFSFYNIHWVRQTPGQGLEWIGLIYPDNGDTSYNQKFKAKATLTADKSSSTAYMQLSSLTSEDSAVYYCARGGFDYWGQGTTLTVSSGGGGSGGGGSGGGGSDIQMTQSPASLSASVGETVTITCRASENIYSYLAWYQQKQGKSPQLLVYNAKTLAEGVPSRFSGSGSGTQFSLKINSLQPEDFGSYYCQHHYGTPYTFGGGTKLEMKESKYGPPCPPCPAPEAAGGPSVFLFPPKPKDTLMISRTPEVTCVVVDVSQEDPEVQFNWYVDGVEVHNAKTKPREEQFNSTYRVVSVLTVLHQDWLNGKEYKCKVSNKGLPSSIEKTISKAKGQPREPQVYTLPPSQEEMTKNQVSLTCLVKGFYPSDIAVEWESNGQPENNYKTTPPVLDSDGSFFLYSKLTVDKSRWQEGNVFSCSVMHEALHNHYTQKSLSLSLG
B7: 3E1 scFv-Fc (Fc fusion)
chain: QVQLQQPGAEVVKPGASVKMSCKASGYTFTDYYIHWVKQTPGQGLEWIGAIYPDNGDTSYNQKFKVKATLTADKSSSTAYMQLSSLTSEDSAVYYCARAFTYWGQGTLVTVSAGGGGSGGGGSGGGGSDILITQSPASLSASVGETVTITCGASENIYGALNWYQRKQGKSPQLLIYGATNLADGMSSRFSGSGSGRQYSLKISSLHPDDVATYYCQNVLSTPYTFGGGTKLEIKESKYGPPCPPCPAPEAAGGPSVFLFPPKPKDTLMISRTPEVTCVVVDVSQEDPEVQFNWYVDGVEVHNAKTKPREEQFNSTYRVVSVLTVLHQDWLNGKEYKCKVSNKGLPSSIEKTISKAKGQPREPQVYTLPPSQEEMTKNQVSLTCLVKGFYPSDIAVEWESNGQPENNYKTTPPVLDSDGSFFLYSKLTVDKSRWQEGNVFSCSVMHEALHNHYTQKSLSLSLG
B8: 3H9 scFv-Fc (Fc fusion)
chain: EIQLQQSGAELVKPGASVKMSCKASGYTFSFYNMHWVKRTPGQGLEWIGLIYPDNGDTSYNQKFKGKATLTADTSSSTAYMQLSSLTSEDSAVYYCARGGLDYWGQGTTLTVSSGGGGSGGGGSGGGGSDIVLTQSPASLSVSVGETVTITCRASENIYSNLAWYQQKQGKSPQLLVYAATNLADGVPSRFSGSGSGTQYSLKINSLQSEDFGSYYCQHFWGTPYTFGGGTKLELKESKYGPPCPPCPAPEAAGGPSVFLFPPKPKDTLMISRTPEVTCVVVDVSQEDPEVQFNWYVDGVEVHNAKTKPREEQFNSTYRVVSVLTVLHQDWLNGKEYKCKVSNKGLPSSIEKTISKAKGQPREPQVYTLPPSQEEMTKNQVSLTCLVKGFYPSDIAVEWESNGQPENNYKTTPPVLDSDGSFFLYSKLTVDKSRWQEGNVFSCSVMHEALHNHYTQKSLSLSLG
B9: 3E2 scFv-Fc (Fc fusion)
chain: EIQLQQSGAELVKPGASVKMSCKASGYTFSFYNMHWVKRTPGQGLEWIGLIYPDNGDTSYNQKFKGKATLTADTSSSTAYMQLSSLTSEDSAVYYCARGGLDYWGQGTSLTVSSGGGGSGGGGSGGGGSNIVMTQSQKFMSTSVGDRVSVTCKASQNVGTNVAWYQQKPGQSPKALIYSASYRYTGVPDRFTGSGSGTDFTFTISSVQAEDLAVYYCQQHYSTPYTFGGGTKLEIKESKYGPPCPPCPAPEAAGGPSVFLFPPKPKDTLMISRTPEVTCVVVDVSQEDPEVQFNWYVDGVEVHNAKTKPREEQFNSTYRVVSVLTVLHQDWLNGKEYKCKVSNKGLPSSIEKTISKAKGQPREPQVYTLPPSQEEMTKNQVSLTCLVKGFYPSDIAVEWESNGQPENNYKTTPPVLDSDGSFFLYSKLTVDKSRWQEGNVFSCSVMHEALHNHYTQKSLSLSLG
B10: 3B4 scFv-Fc (Fc fusion)
chain: B1 chain with I2V, E10D, R30S, K38R, V132Q, L133M, T134I, L140M, I235M
B11: 3B7 scFv-Fc (Fc fusion)
chain: B1 chain with I2V, L101F, V132Q, L133M, I235L

The binders below were run against recombinant mouse FGFR2b (mouse) (UniProt P21803) (assay: ELISA, antibody 1ug/mL).
Chain of recombinant mouse FGFR2b (mouse) (P21803 22-377): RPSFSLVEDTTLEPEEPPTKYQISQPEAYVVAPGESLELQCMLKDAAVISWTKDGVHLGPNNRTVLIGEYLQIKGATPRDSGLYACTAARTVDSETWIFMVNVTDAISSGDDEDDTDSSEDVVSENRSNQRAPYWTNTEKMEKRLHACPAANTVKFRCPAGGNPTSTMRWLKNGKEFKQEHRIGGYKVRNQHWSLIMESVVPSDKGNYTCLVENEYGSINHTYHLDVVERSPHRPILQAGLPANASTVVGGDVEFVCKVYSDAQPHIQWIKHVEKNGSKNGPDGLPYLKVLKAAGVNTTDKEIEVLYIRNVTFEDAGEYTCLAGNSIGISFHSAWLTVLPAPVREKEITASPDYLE

**Q.** With B1 as the binder, how does the OD (450 nm) value read?
**A.** Its OD (450 nm) value is 2.38.

**Q.** For B2, which OD (450 nm) value is on record?
**A.** The OD (450 nm) value was 3.1.

**Q.** With B3 as the binder, how does the OD (450 nm) value read?
**A.** Its OD (450 nm) value is 2.87.

**Q.** B4 was tested. Which OD (450 nm) value did it give?
**A.** Its OD (450 nm) value is 2.57.

**Q.** Which OD (450 nm) value does the source give for B5 here?
**A.** Its OD (450 nm) value is 2.59.

**Q.** How did the OD (450 nm) value turn out when B6 was run?
**A.** Its OD (450 nm) value is 2.39.

**Q.** How did the OD (450 nm) value turn out when B7 was run?
**A.** Its OD (450 nm) value is 2.92.

**Q.** Which OD (450 nm) value does the source give for B8 here?
**A.** Its OD (450 nm) value is 2.99.

**Q.** With B9 as the binder, how does the OD (450 nm) value read?
**A.** The OD (450 nm) value was 2.96.

**Q.** B10 was tested. Which OD (450 nm) value did it give?
**A.** The OD (450 nm) value was 2.88.

**Q.** For B11, which OD (450 nm) value is on record?
**A.** The OD (450 nm) value was 2.97.

What follows are binders tested against FGFR1 (acro) (UniProt P11362) (assay: ELISA, antibody 10 µg/mL).
Chain of FGFR1 (acro) (P11362 22-376): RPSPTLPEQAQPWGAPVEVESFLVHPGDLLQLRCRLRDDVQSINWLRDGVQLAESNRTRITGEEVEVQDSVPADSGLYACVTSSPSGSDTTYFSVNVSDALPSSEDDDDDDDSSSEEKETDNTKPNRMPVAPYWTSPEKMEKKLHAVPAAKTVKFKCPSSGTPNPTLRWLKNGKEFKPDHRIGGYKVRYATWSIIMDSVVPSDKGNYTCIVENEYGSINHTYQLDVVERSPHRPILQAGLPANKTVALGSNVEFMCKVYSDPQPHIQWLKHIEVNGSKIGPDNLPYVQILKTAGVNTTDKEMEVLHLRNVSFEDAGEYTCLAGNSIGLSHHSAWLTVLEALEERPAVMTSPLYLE

**Q.** For B1, which OD (450 nm) value is on record?
**A.** The OD (450 nm) value was 0.108.

**Q.** How did the OD (450 nm) value turn out when B2 was run?
**A.** Its OD (450 nm) value is 0.077.

**Q.** B3 was tested. Which OD (450 nm) value did it give?
**A.** The OD (450 nm) value was 0.086.

**Q.** For B4, which OD (450 nm) value is on record?
**A.** The OD (450 nm) value was 0.113.

**Q.** Which OD (450 nm) value does the source give for B5 here?
**A.** The OD (450 nm) value was 0.693.

**Q.** With B6 as the binder, how does the OD (450 nm) value read?
**A.** Its OD (450 nm) value is 0.077.

**Q.** Which OD (450 nm) value does the source give for B7 here?
**A.** Its OD (450 nm) value is 0.08.

**Q.** B8 was tested. Which OD (450 nm) value did it give?
**A.** Its OD (450 nm) value is 0.646.

**Q.** For B9, which OD (450 nm) value is on record?
**A.** The OD (450 nm) value was 0.122.

**Q.** How did the OD (450 nm) value turn out when B10 was run?
**A.** The OD (450 nm) value was 0.458.

**Q.** Which OD (450 nm) value does the source give for B11 here?
**A.** The OD (450 nm) value was 0.083.

The binders below were run against recombinant mouse FGFR2b (mouse) (UniProt P21803) (assay: BLI, antibody on AHC2 sensor).

**Q.** Which Kd does the source give for B1 here?
**A.** Its Kd is 36.1 nM.

**Q.** What about the koff of the same binder?
**A.** The koff was 0.00162 s⁻¹.

**Q.** And the kon?
**A.** Its kon is 44800 M⁻¹ s⁻¹.

**Q.** How did the Kd turn out when B2 was run?
**A.** The Kd was 8.71 nM.

**Q.** What about the koff of the same binder?
**A.** The koff was 0.000365 s⁻¹.

**Q.** What about the kon of the same binder?
**A.** The kon was 41900 M⁻¹ s⁻¹.

**Q.** Which Kd does the source give for B3 here?
**A.** The Kd was 52.5 nM.

**Q.** And the koff?
**A.** The koff was 0.00217 s⁻¹.

**Q.** What about the kon of the same binder?
**A.** The kon was 41300 M⁻¹ s⁻¹.

**Q.** Which Kd does the source give for B4 here?
**A.** Its Kd is 9.95 nM.

**Q.** What about the koff of the same binder?
**A.** The koff was 0.000483 s⁻¹.

**Q.** And the kon?
**A.** Its kon is 48500 M⁻¹ s⁻¹.

**Q.** Which Kd does the source give for B5 here?
**A.** Its Kd is 21.7 nM.

**Q.** And the koff?
**A.** The koff was 0.000593 s⁻¹.

**Q.** What about the kon of the same binder?
**A.** The kon was 27400 M⁻¹ s⁻¹.

**Q.** With B6 as the binder, how does the Kd read?
**A.** The Kd was 43.7 nM.

**Q.** What about the koff of the same binder?
**A.** Its koff is 0.00156 s⁻¹.

**Q.** What about the kon of the same binder?
**A.** The kon was 35700 M⁻¹ s⁻¹.

**Q.** B7 was tested. Which Kd did it give?
**A.** The Kd was 21.8 nM.

**Q.** And the koff?
**A.** The koff was 0.00126 s⁻¹.

**Q.** And the kon?
**A.** The kon was 57800 M⁻¹ s⁻¹.

**Q.** B8 was tested. Which Kd did it give?
**A.** The Kd was 23.8 nM.

**Q.** What about the koff of the same binder?
**A.** Its koff is 0.00129 s⁻¹.

**Q.** And the kon?
**A.** Its kon is 54200 M⁻¹ s⁻¹.

**Q.** How did the Kd turn out when B9 was run?
**A.** Its Kd is 36.5 nM.

**Q.** What about the koff of the same binder?
**A.** Its koff is 0.00152 s⁻¹.

**Q.** What about the kon of the same binder?
**A.** The kon was 41800 M⁻¹ s⁻¹.

**Q.** What does the source list for B10?
**A.** Kd: 27.3 nM; koff: 0.0015 s⁻¹; kon: 54900 M⁻¹ s⁻¹

**Q.** With B11 as the binder, how does the Kd read?
**A.** The Kd was 33.9 nM.

**Q.** What about the koff of the same binder?
**A.** Its koff is 0.00172 s⁻¹.

**Q.** And the kon?
**A.** The kon was 50700 M⁻¹ s⁻¹.
